# Source: publication PMC2116111
# pKd: −log10 of the molar value.
# Biological target: 420-kD polypeptide (human alpha 2-macroglobulin receptor) (human (endogenous in placenta)) (UniProt Q07954)
# Assay: ELISA
# Sequence of UniProt Q07954 (Q07954 20-4544): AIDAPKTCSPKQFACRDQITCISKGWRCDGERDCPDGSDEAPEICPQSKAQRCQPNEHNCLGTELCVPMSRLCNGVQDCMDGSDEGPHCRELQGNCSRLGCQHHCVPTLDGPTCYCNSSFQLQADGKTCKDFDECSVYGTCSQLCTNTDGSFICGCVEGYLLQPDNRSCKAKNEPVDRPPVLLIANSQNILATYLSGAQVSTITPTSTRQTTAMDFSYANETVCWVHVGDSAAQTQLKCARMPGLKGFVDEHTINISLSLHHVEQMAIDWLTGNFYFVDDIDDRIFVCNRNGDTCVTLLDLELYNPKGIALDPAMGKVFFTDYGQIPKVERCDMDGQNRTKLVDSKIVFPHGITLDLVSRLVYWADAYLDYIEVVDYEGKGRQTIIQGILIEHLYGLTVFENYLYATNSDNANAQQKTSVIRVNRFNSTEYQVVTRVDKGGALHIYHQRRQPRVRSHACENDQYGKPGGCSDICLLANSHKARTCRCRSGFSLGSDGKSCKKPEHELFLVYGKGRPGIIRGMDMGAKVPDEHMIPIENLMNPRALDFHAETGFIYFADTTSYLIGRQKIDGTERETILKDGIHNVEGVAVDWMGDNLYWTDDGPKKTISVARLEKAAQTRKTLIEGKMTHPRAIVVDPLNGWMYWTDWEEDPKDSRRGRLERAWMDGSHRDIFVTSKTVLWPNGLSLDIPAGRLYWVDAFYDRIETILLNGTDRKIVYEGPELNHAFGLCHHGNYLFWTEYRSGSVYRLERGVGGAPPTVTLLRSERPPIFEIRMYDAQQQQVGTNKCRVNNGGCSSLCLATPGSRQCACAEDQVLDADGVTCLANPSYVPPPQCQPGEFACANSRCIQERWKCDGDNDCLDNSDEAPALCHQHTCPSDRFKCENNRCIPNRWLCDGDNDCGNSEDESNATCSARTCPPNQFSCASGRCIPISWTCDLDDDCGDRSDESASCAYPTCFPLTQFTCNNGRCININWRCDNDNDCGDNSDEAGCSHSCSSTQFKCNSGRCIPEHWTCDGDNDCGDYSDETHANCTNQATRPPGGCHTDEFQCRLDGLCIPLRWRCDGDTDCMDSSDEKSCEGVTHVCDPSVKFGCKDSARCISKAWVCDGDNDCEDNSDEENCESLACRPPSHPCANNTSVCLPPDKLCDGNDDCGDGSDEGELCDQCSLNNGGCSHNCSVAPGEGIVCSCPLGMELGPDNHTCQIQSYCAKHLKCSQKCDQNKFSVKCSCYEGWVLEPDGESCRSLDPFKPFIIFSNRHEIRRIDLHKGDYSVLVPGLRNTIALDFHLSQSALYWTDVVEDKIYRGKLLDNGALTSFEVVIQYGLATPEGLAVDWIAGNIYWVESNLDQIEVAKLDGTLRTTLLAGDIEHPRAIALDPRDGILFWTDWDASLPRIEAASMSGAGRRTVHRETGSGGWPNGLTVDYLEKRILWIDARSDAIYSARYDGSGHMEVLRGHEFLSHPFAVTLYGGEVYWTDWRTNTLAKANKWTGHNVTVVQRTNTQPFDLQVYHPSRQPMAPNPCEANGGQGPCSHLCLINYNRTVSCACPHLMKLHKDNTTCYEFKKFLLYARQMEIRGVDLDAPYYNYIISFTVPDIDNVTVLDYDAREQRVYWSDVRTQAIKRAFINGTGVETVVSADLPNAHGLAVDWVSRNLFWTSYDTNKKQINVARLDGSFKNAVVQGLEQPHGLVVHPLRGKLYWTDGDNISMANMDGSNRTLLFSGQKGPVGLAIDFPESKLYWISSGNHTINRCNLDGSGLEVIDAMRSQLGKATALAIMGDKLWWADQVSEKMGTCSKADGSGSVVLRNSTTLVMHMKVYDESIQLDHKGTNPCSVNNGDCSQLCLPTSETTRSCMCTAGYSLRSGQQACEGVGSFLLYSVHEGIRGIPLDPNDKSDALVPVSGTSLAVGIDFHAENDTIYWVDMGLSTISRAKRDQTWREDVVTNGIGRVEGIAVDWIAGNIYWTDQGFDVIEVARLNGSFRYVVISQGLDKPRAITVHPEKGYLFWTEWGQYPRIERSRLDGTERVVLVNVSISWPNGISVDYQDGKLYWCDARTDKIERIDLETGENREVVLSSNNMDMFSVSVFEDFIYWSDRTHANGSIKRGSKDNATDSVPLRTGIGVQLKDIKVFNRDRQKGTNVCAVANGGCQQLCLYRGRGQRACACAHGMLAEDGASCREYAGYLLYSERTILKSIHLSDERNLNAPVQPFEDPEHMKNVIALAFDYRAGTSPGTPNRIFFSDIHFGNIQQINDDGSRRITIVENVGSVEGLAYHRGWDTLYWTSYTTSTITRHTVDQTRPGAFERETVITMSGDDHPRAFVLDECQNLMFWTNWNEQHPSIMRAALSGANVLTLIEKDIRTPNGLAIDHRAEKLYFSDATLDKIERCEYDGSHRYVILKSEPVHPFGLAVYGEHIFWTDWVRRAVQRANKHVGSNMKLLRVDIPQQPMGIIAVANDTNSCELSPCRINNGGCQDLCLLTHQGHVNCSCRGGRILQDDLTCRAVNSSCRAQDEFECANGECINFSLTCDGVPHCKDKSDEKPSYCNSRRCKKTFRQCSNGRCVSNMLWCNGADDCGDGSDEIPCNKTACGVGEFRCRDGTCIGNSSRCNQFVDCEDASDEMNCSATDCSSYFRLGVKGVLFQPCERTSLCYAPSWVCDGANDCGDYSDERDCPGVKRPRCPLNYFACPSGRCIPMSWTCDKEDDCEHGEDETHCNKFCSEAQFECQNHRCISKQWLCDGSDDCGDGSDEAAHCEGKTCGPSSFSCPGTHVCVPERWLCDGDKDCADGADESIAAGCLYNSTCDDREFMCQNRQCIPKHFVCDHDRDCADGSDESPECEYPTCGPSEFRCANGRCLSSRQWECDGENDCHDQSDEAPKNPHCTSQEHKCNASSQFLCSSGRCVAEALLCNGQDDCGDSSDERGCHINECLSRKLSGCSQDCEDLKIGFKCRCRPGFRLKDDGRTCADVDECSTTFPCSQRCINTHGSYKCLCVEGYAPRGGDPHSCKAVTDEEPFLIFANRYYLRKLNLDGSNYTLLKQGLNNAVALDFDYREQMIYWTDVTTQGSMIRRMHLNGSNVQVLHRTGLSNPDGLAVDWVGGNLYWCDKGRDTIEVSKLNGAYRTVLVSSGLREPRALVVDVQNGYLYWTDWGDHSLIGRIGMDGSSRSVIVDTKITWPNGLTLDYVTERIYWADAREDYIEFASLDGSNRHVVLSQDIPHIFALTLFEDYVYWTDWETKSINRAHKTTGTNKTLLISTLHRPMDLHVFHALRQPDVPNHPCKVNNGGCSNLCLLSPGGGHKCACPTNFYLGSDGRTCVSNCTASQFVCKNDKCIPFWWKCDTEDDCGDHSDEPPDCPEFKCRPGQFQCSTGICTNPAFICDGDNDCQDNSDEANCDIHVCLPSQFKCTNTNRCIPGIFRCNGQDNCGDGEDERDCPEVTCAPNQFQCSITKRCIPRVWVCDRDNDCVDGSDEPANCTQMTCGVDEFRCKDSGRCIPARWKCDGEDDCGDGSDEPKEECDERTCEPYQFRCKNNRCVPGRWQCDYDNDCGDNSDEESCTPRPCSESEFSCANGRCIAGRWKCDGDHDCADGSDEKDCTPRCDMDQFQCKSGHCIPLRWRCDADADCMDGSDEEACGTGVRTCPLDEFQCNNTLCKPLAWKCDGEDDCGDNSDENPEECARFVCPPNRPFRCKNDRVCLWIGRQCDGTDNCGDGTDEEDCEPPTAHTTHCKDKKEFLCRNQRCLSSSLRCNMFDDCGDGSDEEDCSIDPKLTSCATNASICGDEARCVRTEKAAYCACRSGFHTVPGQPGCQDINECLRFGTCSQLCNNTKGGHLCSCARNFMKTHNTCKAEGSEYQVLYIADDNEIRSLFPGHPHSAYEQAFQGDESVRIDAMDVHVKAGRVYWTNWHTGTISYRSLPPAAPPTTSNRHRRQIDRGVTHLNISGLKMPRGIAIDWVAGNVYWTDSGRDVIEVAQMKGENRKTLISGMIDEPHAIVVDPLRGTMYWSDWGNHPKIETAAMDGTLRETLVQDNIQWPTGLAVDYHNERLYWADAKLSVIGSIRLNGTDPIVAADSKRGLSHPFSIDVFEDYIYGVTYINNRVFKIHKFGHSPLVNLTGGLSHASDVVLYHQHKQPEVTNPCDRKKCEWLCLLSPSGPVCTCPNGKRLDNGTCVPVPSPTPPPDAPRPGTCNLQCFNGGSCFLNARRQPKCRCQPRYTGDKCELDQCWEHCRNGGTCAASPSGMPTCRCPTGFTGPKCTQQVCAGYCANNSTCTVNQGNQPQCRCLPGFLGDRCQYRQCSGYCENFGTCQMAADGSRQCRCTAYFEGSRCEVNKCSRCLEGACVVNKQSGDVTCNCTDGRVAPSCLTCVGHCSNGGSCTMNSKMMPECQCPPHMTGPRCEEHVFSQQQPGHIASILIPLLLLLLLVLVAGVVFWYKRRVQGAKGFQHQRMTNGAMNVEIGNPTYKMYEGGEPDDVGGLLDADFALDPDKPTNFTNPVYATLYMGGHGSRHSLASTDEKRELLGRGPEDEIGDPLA
substance,measurement,value
alpha 2-macroglobulin-trypsin complex (from UniProt P01023 24-1474),pKd,7.15
